Measured values reported in US20200115452A1 (Dana-Farber, published 2020).
Where no end group is shown, it is not given here.

T1: PD-1 pITIM peptide KEDPSAVPVFSVD(pY)GELDFQWRE (phosphotyrosine (pY) at peptide residue 14 (PD-1 ITIM tyrosine))
T1 construct: Coated on ELISA plates at 1 µg/ml; also called negative control pITIM peptide
T1 peptide: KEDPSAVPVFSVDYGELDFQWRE

T2: unphosphorylated peptide (unphosphorylated form of the PD-1 p248Tyr peptide) (human, not fully specified)
T2 peptide: VPEQTEYATIVF


What was measured:
[1] = molecular target: T1, PD-1 pITIM peptide …; test: peptide ELISA with antibody supernatants
[2] = molecular target: T2, unphosphorylated peptide …; test: ELISA, hybridoma screen
Text: (§1) Hybridoma wells were screened by western blot on pervanadate treated Jurkat-hPD-1 lysates and by ELISA on PD-1 p248Tyr peptide conjugated to BSA and lack of reactivity to unphosphorylated peptide or BSA.

BSA = molecular target: T3, BSA (UniProt P02769 25-607); test: ELISA, hybridoma screen
T3 construct: Carrier control in the hybridoma ELISA screen; also called carrier
T3 sequence (P02769 25-607 limits assumed): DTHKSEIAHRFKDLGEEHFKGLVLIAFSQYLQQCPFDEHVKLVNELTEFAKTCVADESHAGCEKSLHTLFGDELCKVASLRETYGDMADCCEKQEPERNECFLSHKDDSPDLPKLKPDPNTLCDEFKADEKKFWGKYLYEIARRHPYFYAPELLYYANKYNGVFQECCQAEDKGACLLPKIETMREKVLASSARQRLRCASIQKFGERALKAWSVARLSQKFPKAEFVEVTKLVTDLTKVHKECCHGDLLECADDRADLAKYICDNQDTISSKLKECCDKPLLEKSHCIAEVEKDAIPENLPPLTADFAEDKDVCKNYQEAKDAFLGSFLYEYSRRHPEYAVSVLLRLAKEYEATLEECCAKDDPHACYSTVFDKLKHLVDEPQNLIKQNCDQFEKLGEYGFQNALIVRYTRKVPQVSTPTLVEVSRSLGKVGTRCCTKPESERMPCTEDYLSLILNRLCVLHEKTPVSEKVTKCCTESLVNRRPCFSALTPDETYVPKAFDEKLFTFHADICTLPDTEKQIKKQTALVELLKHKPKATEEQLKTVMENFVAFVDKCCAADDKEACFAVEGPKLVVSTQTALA
Text: as §1

binding result [1] | binding result [2] | binding result (BSA) | Binder
no binding | – | – | rabbit mAb 6H2/6K2 (antibody, V domains shown, Rabbit monoclonal tested as culture supernatant) VH: CQSVEESGGRLVTPGTPLTLTCTVSGIDLNYYAMGWVRQAPGKGLEYIGWIKSSGSAYYARWVNGRFTISKTSSTTVDLKMTSPTTEDTATYFCARDGHNIIEYYDLWGQGTLVTVSS VL: AIKMTQTPSSAEAAVGGTITINCQASQSISSSLAWYQQKPGQPPKLLIYKASTLASGVPSRFSGSRSGTQFTLTISGVQCDDAATYYCQQGWSGDNVDNIFGGGTEVVVK
no binding | – | – | rabbit mAb 2H2/2K4 (antibody, V domains shown, Rabbit monoclonal tested as culture supernatant, detected with anti-rabbit IgG Fc) VH: QSLEESGGDLVKPGASLTLTCKASGFSFSGSYHMCWVRQAPGKGLEWIAHIYVGSSGGTYYASWAKGRFAISKTSSTTVTLQMTSLTAADTATYFCARRDTGGTSAYALWGQGTLVTVSS VL: DVVMTQTPSSASEPVGGTVTIKCQASQSVSSRLAWYQQKPGQPPKLLIYKASTLASGVPSRFKGSGYGTEFTLTISDLECADAATYYCQCTYIDSTYGNNFGGGTEVVVK
– | no binding | no binding | anti-phosphorylated PD-1 monoclonal antibody 407.6G12 (antibody, mouse IgG2a, V domains shown, Mouse IgG2a, kappa; A BV421-conjugated version was used for flow cytometry; also called clone 407.6G12; 307.6G12) VH: EVQLVESGGGLVQPKGSLKLSCAASGFTFNTYAMNWVRQAPGKGLEWVARIRSKSDNYATYYADSVKDRFTISRDDSQSMLYLQMNNLKTEDTAMYYCMRGITTVNVWGAGTTVTVSS VL: DIVMTQSQKFMSTSVGDRVSVTCKASQNVGTNVAWYQQKPGQSPKALIYSASYRYSGVPDRFTGSGSGTDFTLTISNVHSEDLAEYFCQQYNFYPLTFGAGTKLELK
